The source of these data is PMC9631961.

The target of this assay is Vsg-GFP fusion protein (D. melanogaster Vsg, transiently expressed in U2OS cells) (Drosophila melanogaster). In words: immunostaining of cells or tissue.

Turning to “TcdA1 (TcA subunit of the Photorhabdus luminescens Tc toxin pTc) (from UniProt Q9RN43 1-2516) (natural protein)”, the percent of TcdA1-bound cells that are GFP positive came out at 96%.
